Test results reported in patent publication US20200199244A1 (published 2020).
Positions count from the first letter of the chain named. Several values for one entry are separate records, joined by “and”; a condition that tells them apart may be missing. Identical values can stand only once.

T1: human CD40 (H76R, W109L, L121P) Fc fusion (human)
T1 construct: Same construct as wt-hCD40 with H76R, W109L and L121P; also called hCD40-M5; hCD40-M5 (H76R, W109L, L121P); not shown: human IgG1 Fc
T1 chain: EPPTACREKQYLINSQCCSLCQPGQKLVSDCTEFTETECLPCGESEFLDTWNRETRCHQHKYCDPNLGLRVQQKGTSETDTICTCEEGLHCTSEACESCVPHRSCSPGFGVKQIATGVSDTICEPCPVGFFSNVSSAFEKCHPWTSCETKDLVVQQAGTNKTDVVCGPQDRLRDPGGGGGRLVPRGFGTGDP

T2: wild type cynomolgus monkey CD40 Fc fusion (cynomolgus monkey (Macaca …))
T2 construct: also called wt-cCD40; wt-cyno-CD40; not shown: human IgG1 Fc
T2 chain: T1 chain with A95S, S106L, H142R, L172Q

B1: DMS0654 BMS3h-56-201-AST-DOM7h-11-3 (bispecific antibody)
chain: EVQLLESGGGLVQPGGSLRLSCAASGFTFRDYEMWWVRQAPGKGLERVSAINPQGTRTYYADSVKGRFTISRDNSKNTLYLQMNSLRAEDTAVYYCAKLPFYFQEWGQGTLVTVSSASTDIQMTQSPSSLSASVGDRVTITCRASRPIGTTLSWYQQKPGKAPKLLILWNSRLQSGVPSRFSGSGSGTDFTLTISSLQPEDFATYYCAQAGTHPTTFGQGTKVEIKR
notes: AlbudAb inline fusion (ILF): an anti-CD40 dAb and an anti-serum-albumin dAb joined by a linker in one polypeptide
B2: DMS0655 BMS3h-56-201-AST-DOM7h-11-87 (bispecific antibody)
chain: B1 chain with T151M, W169A, N170F, P214H
notes: as for B1
B3: DMS0656 BMS3h-56-258-AST-DOM7h-11-3 (bispecific antibody)
chain: B1 chain with Q104H
notes: as for B1
B4: BMS3h-217-16 (other)
VL: DIQMTQSPSSLSASVGDRVTITCRASHFIGTLLSWYQQKPRKAPKLLITYGSLLQSGVPSRFSGSGSGTDFTLTISSLQPEDFATYYCGQGVLWPPTFGQGTKVEIKR
notes: Anti-human CD40 domain antibody (dAb), single V kappa domain
B5: BMS3h-217-23 (other)
VL: B4 VL with T31S, Q38V, R41G, P96A, K103T
notes: as for B4
B6: BMS3h-217-5 (other)
VL: B4 VL with S10F, G30A, R41G
notes: as for B4
B7: BMS3h-202 (other)
VH: EVQLLESGGGLVQPGGSLRLSCAASGFTFPTAEMVWVRQAPGKGLEWVSSISASGGSTYYADSVKGRFTISRDNSKNTLYLQMNSLRAEDTAVYYCAKEPVSYVATFDYWGQGTLVTVSS
notes: dAb, single VH
B8: BMS3h-56 (other)
VH: EVQLLESGGGLVQPGGSLRLSCAASGFTFRDYEMWWVRQAPGKGLERVSAINPQGTRTYYADSVKGRFTISRDNSKNTLYLQMNSLRAEDTAVYYCAKLPFIFDYWGQGTLVTVSS
notes: dAb, single VH

What was measured:
human CD40 [1] = molecular target: T3, human CD40 (human, UniProt P25942 21-277); experiment: CHO-CD40 cell RBA: competition with biotinylated human IZ-CD40L for human CD40 on CHO cells, fluorescence (FMAT); 50 µM HSA
T3 construct: Native on primary human tonsillar B cells, monocyte-derived dendritic cells and RAMOS cells; stably transfected on CHO-DG44 cells; also called hCD40

human CD40 [2] = molecular target: T3, human CD40; experiment: CHO-CD40 cell RBA: competition with biotinylated human IZ-CD40L for human CD40 on CHO cells, fluorescence (FMAT); 0.1% BSA
[3] = molecular target: T4, human CD40 (W109L, L121P) Fc fusion (human, UniProt P25942 21-193); experiment: SPR, ProteOn XPR36; CD40-Fc captured, dAb analyte; 1:1 fit;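 also: CD40-Fc captured on anti-human IgG(Fc) surface of a GLC chip, buffer pH 7.1, sensorgrams double-referenced against surfaces without CD40-Fc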
T4 construct: Same construct as wt-hCD40 with W109L and L121P; also called hCD40-M4; hCD40 M4 (W109L, L121P); not shown: human IgG1 Fc

[4] = molecular target: T5, human CD40 (W109L) Fc fusion (human, UniProt P25942 21-193); experiment: as above
T5 construct: Same construct as wt-hCD40 with W109L; also called hCD40-M2; hCD40 M2 (W109L); not shown: human IgG1 Fc

[5] = molecular target: T6, human CD40 (W109R) Fc fusion (Chimpanzee CD40) (human, UniProt P25942 21-193); experiment: as above
T6 construct: Same construct as wt-hCD40 with W109R (the residue of chimpanzee CD40); also called hCD40-M3; hCD40 M3 (W109R); not shown: human IgG1 Fc

[6] = molecular target: T7, human CD40 (H76R) Fc fusion (human, UniProt P25942 21-193); experiment: as above
T7 construct: also called hCD40-M1; hCD40 M1 (H76R); not shown: human IgG1 Fc

[7] = molecular target: T8, wild type human CD40 Fc fusion (human, UniProt P25942 21-193); experiment: as above
T8 construct: also called wt-hCD40; not shown: human IgG1 Fc

[8] = molecular target: T1, human CD40 (H76R, W109L, L121P) Fc …; experiment: as above
Experimental: (§1) Assays were performed on a BioRad ProteOn XPR36 SPR instrument. The SPR surfaces were prepared by immobilizing 8 μg/ml anti-human IgG(Fc) antibody (Biacore/GE Healthcare) in 10 mM sodium acetate pH 4.5 on a BioRad GLC sensor chip using standard ethyl(dimethylaminopropyl) carbodiimide (EDC)/N-hydroxysuccinimide (NHS) chemistry, with ethanolamine blocking. The running buffer for immobilization and kinetic binding analysis was 10 mM sodium phosphate, 130 mM sodium chloride, 0.05% tween 20, pH 7.1. CD40-Fc fusion proteins at concentrations of 20 μg/ml were captured in the vertical orientation on these surfaces via the Fc tail, and reference surfaces lacking CD40-Fc proteins were used for reference subtraction. […] The surfaces were regenerated in both horizontal and vertical orientations with 30 s pulses of 3 M MgCl₂ followed by running buffer at 60 μl/min. Sensogram data was double-referenced and then fitted to a 1:1 Langmuir model using BioRad ProteOn Manager V.2.1.0.38 software, to determine the association rate constant (ka), the dissociation rate constant (kd), and the equilibrium dissociation constant (KD).

[9] = molecular target: T2, wild type cynomolgus monkey CD40 Fc …; experiment: as above
Experimental: as §1

[10] = molecular target: T8, wild type human CD40 Fc fusion; experiment: SPR, ProteOn XPR36; CD40-Fc captured, dAb analyte; 1:1 fit; repeat
Experimental: as §1

[11] = molecular target: T9, human CD40 (BMS, CY24FEB06-01) (human, UniProt P25942 21-193); experiment: bead RBA, competition with IZ-CD40L
T9 construct: Soluble reagent of the bead and ELISA RBA; It is detected with an anti-human IgG (Fc) mAb, so it may be a CD40-Ig fusion

Binder | EC50 (human CD40 [1]) [nM] | EC50 (human CD40 [2]) [nM] | Kd [3] [nM] | koff [3] [s⁻¹] | kon [3] [M⁻¹ s⁻¹] | Kd [4] [nM] | koff [4] [s⁻¹] | kon [4] [M⁻¹ s⁻¹] | Kd [5] [nM] | koff [5] [s⁻¹] | kon [5] [M⁻¹ s⁻¹] | Kd [6] [nM] | koff [6] [s⁻¹] | kon [6] [M⁻¹ s⁻¹] | Kd [7] [nM] | koff [7] [s⁻¹] | kon [7] [M⁻¹ s⁻¹] | Kd [8] [nM] | koff [8] [s⁻¹] | kon [8] [M⁻¹ s⁻¹] | other results
B1 | 8.6 | 15 |  |  |  |  |  |  |  |  |  |  |  |  |  |  |  |  |  |  | 
B2 | 2.7 | 6.3 |  |  |  |  |  |  |  |  |  |  |  |  |  |  |  |  |  |  | 
B3 | 26.8 | 11.8 |  |  |  |  |  |  |  |  |  |  |  |  |  |  |  |  |  |  | 
B4 |  |  | 0.35 | 0.00152 | 4.39e+06 | 0.41 | 0.00167 | 4.06e+06 | 0.27 | 0.00104 | 3.78e+06 | 0.35 | 0.00168 | 4.83e+06 | 0.22 | 0.000991 | 4.47e+06 | 0.47 | 0.0017 | 3.65e+06 | Kd [9]: 0.43 nM; koff [9]: 0.00147 s⁻¹; kon [9]: 3.44e+06 M⁻¹ s⁻¹; Kd [10]: 0.26 nM; koff [10]: 0.000847 s⁻¹; kon [10]: 3.3e+06 M⁻¹ s⁻¹
B5 |  |  | 1.61 | 0.00268 | 1.67e+06 | 1.95 | 0.00291 | 1.49e+06 | 1.22 | 0.00186 | 1.53e+06 | 1.59 | 0.00262 | 1.64e+06 | 0.78 | 0.00127 | 1.64e+06 | 2.21 | 0.00287 | 1.3e+06 | Kd [9]: 1.9 nM; koff [9]: 0.00235 s⁻¹; kon [9]: 1.24e+06 M⁻¹ s⁻¹; Kd [10]: 1.52 nM; koff [10]: 0.00163 s⁻¹; kon [10]: 1.07e+06 M⁻¹ s⁻¹
B6 |  |  | 0.93 | 0.00259 | 2.78e+06 | 0.99 | 0.00251 | 2.55e+06 | 0.72 | 0.00196 | 2.73e+06 | 0.94 | 0.00299 | 3.17e+06 | 0.47 | 0.00127 | 2.71e+06 | 0.99 | 0.00242 | 2.44e+06 | Kd [9]: 0.86 nM; koff [9]: 0.00212 s⁻¹; kon [9]: 2.46e+06 M⁻¹ s⁻¹; Kd [10]: 0.48 nM; koff [10]: 0.000981 s⁻¹; kon [10]: 2.03e+06 M⁻¹ s⁻¹
B7 |  |  |  |  |  |  |  |  |  |  |  |  |  |  |  |  |  |  |  |  | EC50 [11]: 3700 nM and 3000 nM
B8 |  |  |  |  |  |  |  |  |  |  |  |  |  |  |  |  |  |  |  |  | EC50 [11]: 1000 nM and 500 nM
